Measurements taken from patent US20210008175A1, “BACTERIOPHAGE LYSIN AND ANTIBIOTIC COMBINATIONS AGAINST GRAM POSITIVE BACTERIA” (priority 2012, published 2021).

Legend:
[1] = test system: Staphylococcus aureus (MRSA and MSSA strains); test: Time kill assay, single agents at 1×MIC (CLSI); type: cell-based
Pseudomonas aeruginosa = test: MIC, broth microdilution (CLSI M07-A9); type: cell-based
Streptococcus mutans = test: MIC, broth microdilution (CLSI M07-A9); type: cell-based; conditions: 12 tested
Klebsiella spp. = test: MIC, sensitivity of human gut bacteria; type: cell-based; conditions: N 8
Lactobacillus spp. = test: MIC, sensitivity of human gut bacteria; type: cell-based; conditions: N 6
Lactococcus spp. = test: MIC, sensitivity of human gut bacteria; type: cell-based; conditions: N 3
[2] = test system: MRSA strain ATCC 700699 and MSSA strain ATCC 25923; test: microbe, parasite or virus in culture; type: cell-based, Staphylococcus aureus
Acinetobacter baumannii = test: MIC, broth microdilution (CLSI M07-A9); type: cell-based; conditions: 8 tested
Bacillus cereus = test: MIC, broth microdilution (CLSI M07-A9); type: cell-based; conditions: 10 tested
Enterococcus faecium = test: MIC, broth microdilution (CLSI M07-A9); type: cell-based; conditions: 5 tested
MRSA strain 269 (MW2) = test: Combination MIC study in the presence of 15% surfactant (Survanta); type: cell-based, Staphylococcus aureus; conditions: PlySs2 plus daptomycin
[3] = test system: Staphylococcus epidermidis; test: MIC, broth microdilution (CLSI M07-A9); type: cell-based; conditions: 11 tested
[4] = test system: Streptococcus pyogenes, Group A; test: MIC, broth microdilution (CLSI M07-A9); type: cell-based; conditions: 54 tested
[5] = test system: Streptococcus agalactiae, Group B; test: MIC, broth microdilution (CLSI M07-A9); type: cell-based; conditions: 51 tested
Staphylococcus aureus = test: MIC, broth microdilution (CLSI M07-A9); type: cell-based; conditions: for MIC90 / MIC90 [uM]: with reducing agent
[6] = test system: Staphylococcus lugdiensis; test: MIC, broth microdilution (CLSI M07-A9); type: cell-based; conditions: 10 tested
MRSA S. aureus strains = test: Dual agent MIC assay (PlySs2 and daptomycin together, broth microdilution); type: cell-based; conditions: for MIC combo: PlySs2 and daptomycin combined; for MIC alone: single-agent
S. aureus cocci = test: Electron microscopy of bacteriolysis; type: cell-based; conditions: after only 15 seconds of treatment
Streptococcus pneumoniae = test: MIC, broth microdilution (CLSI M07-A9); type: cell-based; conditions: 26 tested
Listeria monocytogenes = test: MIC, broth microdilution (CLSI M07-A9); type: cell-based; conditions: 12 tested
Proteus mirabilis = test: MIC, sensitivity of human gut bacteria; type: cell-based; conditions: N 2
MRSA = test: Murine bacteremia model, MRSA CFUs in the blood; type: in vivo, mice; conditions: 5.25 mg/kg PlySs2 at 2-hours post-infection
Escherichia coli = test: MIC, broth microdilution (CLSI M07-A9); type: cell-based
[7] = test system: MRSA Staphylococcus aureus strain (MW2); test: microbe, parasite or virus in culture; type: cell-based

B1: PlySs2: bacteriophage lysin derived from Streptococcus suis, amino acid sequence of FIG. 29 (SEQ ID NO: 1), N-terminal CHAP and C-terminal SH3 domain (protein, listed as Streptococcus suis)
chain: MTTVNEALNNVRAQVGSGVSVGNGECYALASWYERMISPDATVGLGAGVGWVSGAIGDTISAKNIGSSYNWQANGWTVSTSGPFKAGQIVTLGATPGNPYGHVVIVEAVDGDRLTILEQNYGGKRYPVRNYYSAASYRQQVVHYITPPGTVAQSAPNLAGSRSYRETGTMTVTVDALNVRRAPNTSGEIVAVYKRGESFDYDTVIIDVNGYVWVSYIGGSGKRNYVATGATKDGKRFGNAWGTFK
2 µg/mL: most dilute concentration in combination that still inhibits growth (MRSA strain 269 (MW2)) | MIC 50% [4] | MIC alone (MRSA S. aureus strains; MRSA strain 223) | MIC combo (MRSA S. aureus strains; MRSA strain 241) | MIC combo (MRSA S. aureus strains; MRSA strain 263) | MIC combo (MRSA S. aureus strains; MRSA strain 269 (MW2)) | MIC combo (MRSA S. aureus strains; MRSA strain 270) | MIC alone (MRSA S. aureus strains; MRSA strain 553) | MIC combo (MRSA S. aureus strains; MRSA strain 828) | MIC combo (MRSA S. aureus strains; MRSA strain 830) | MIC combo (MRSA S. aureus strains; MRSA strain 833)
8 to 16 fold: suppression of daptomycin resistance relative to daptomycin alone ([7]; sub-MIC PlySs2 (4 ug/ml))
0.5 log10: decrease in CFUs in blood (MRSA; in 15 minutes)
512 µg/mL: MIC 90% [3] | MIC 90% (Listeria monocytogenes)
4 µg/mL: MIC 50% (Staphylococcus aureus; Methicillin resistant (120)) | MIC 50% (Staphylococcus aureus; Methicillin susceptible (103)) | MIC alone (MRSA S. aureus strains; MRSA strain 241) | MIC combo (MRSA S. aureus strains; MRSA strain 650) | MIC combo (MRSA S. aureus strains; MRSA strain 827) | MIC combo (MRSA S. aureus strains; MRSA strain 829) | MIC alone (MRSA S. aureus strains; MRSA strain 830)
4: MIC90 (Staphylococcus aureus; DRSA (n = 8)) | MIC 90% (Staphylococcus aureus; Daptomycin-resistant (8)) | MIC90 (Staphylococcus aureus; MRSA (n = 45)) | MIC90 (Staphylococcus aureus; MSSA (n-28)) | MIC 90% (Staphylococcus aureus; Vancomycin-resistant (14)) | Fold reduction (MRSA S. aureus strains; MRSA strain 223) | Fold reduction (MRSA S. aureus strains; MRSA strain 263) | Fold reduction (MRSA S. aureus strains; MRSA strain 269 (MW2)) | Fold reduction (MRSA S. aureus strains; MRSA strain 270) | Fold reduction (MRSA S. aureus strains; MRSA strain 828) | Fold reduction (MRSA S. aureus strains; MRSA strain 833)
2-4 fold: fold reduction in the effective MIC (MRSA S. aureus strains; PlySs2 and daptomycin together, a dozen MRSA strains)
1 to 512 µg/mL: MIC Range (Listeria monocytogenes)
2 log: decrease in CFUs in blood (MRSA; within 60 minutes of treatment)
64 µg/mL: MIC 50% (Streptococcus mutans) | MIC 90% (Streptococcus pneumoniae)
1 to 64 µg/mL: MIC Range [5] | MIC Range (Streptococcus pneumoniae)
2 to 4 µg/mL: MIC in daptomycin resistant clones ([2]; over 21 days of in vitro growth)
4 to 512 µg/mL: MIC Range [3]
1 to 16 µg/mL: MIC Range (Staphylococcus aureus; Methicillin resistant (120)) | MIC Range (Staphylococcus aureus; Methicillin susceptible (103))
8 µg/mL: MIC before daptomycin resistance selection ([2]; start of serial passage) | MIC 90% [4] | MIC 50% [5] | MIC 90% (Staphylococcus aureus; Methicillin resistant (120)) | MIC 90% (Staphylococcus aureus; Methicillin susceptible (103)) | MIC (Staphylococcus aureus; all strains tested including 103 MSSA and 120 MRSA isolates) | MIC 50% [6] | MIC 90% [6] | MIC Range [6] | MIC alone (MRSA S. aureus strains; MRSA strain 263) | MIC alone (MRSA S. aureus strains; MRSA strain 269 (MW2)) | MIC alone (MRSA S. aureus strains; MRSA strain 270) | MIC alone (MRSA S. aureus strains; MRSA strain 650) | MIC alone (MRSA S. aureus strains; MRSA strain 827) | MIC alone (MRSA S. aureus strains; MRSA strain 828) | MIC alone (MRSA S. aureus strains; MRSA strain 829) | MIC alone (MRSA S. aureus strains; MRSA strain 833)
⅛: effective concentration in combination as fraction of MIC (MRSA strain 269 (MW2))
1.2 µM: MIC90 [uM] (Staphylococcus aureus; VISA (n = 10))
32: MIC90 (Staphylococcus aureus; VISA (n = 10)) | MIC 90% (Staphylococcus aureus; Vancomycin-intermediate (31))
≤ 30 minutes: time to reach bactericidal levels (≥3-log10 reduction in CFUs) ([1]; 1×MIC, 20 MSSA and 42 MRSA strains)
32 µg/mL: MIC (Staphylococcus aureus; strain MW2, without DTT)
1 µg/mL: MIC combo (MRSA S. aureus strains; MRSA strain 553)
0.5 to 8 µg/mL: MIC Range [4]
2 to 256 µg/mL: MIC Range (Streptococcus mutans)
256 µg/mL: MIC 90% (Streptococcus mutans)
4 to 8 fold: suppression of vancomycin resistance relative to vancomycin alone ([7]; sub-MIC PlySs2 (8 ug/ml))
128 µg/mL: MIC 50% [3] | MIC 50% (Listeria monocytogenes)
>512 µg/mL: MIC 50% (Pseudomonas aeruginosa; 5 tested) | MIC 90% (Pseudomonas aeruginosa; 5 tested) | MIC Range (Pseudomonas aeruginosa; 5 tested) | CF-301 MIC (Pseudomonas aeruginosa; human gut bacteria, N 11) | CF-301 MIC (Klebsiella spp.) | CF-301 MIC (Lactobacillus spp.) | CF-301 MIC (Lactococcus spp.) | MIC 50% (Acinetobacter baumannii) | MIC 90% (Acinetobacter baumannii) | MIC Range (Acinetobacter baumannii) | MIC 50% (Bacillus cereus) | MIC 90% (Bacillus cereus) | MIC Range (Bacillus cereus) | MIC 50% (Enterococcus faecium) | MIC 90% (Enterococcus faecium) | CF-301 MIC (Proteus mirabilis) | MIC 50% (Escherichia coli; 6 tested) | MIC 90% (Escherichia coli; 6 tested) | MIC Range (Escherichia coli; 6 tested) | CF-301 MIC (Escherichia coli; human gut bacteria, N 10)
extensive bacteriolysis: bacteriolysis by electron microscopy (S. aureus cocci)
≥ 3 log: maximal kill (log reduction) ([1]; all MRSA and MSSA strains tested, generally within the first hour of incubation)
0.15 µM: MIC90 [uM] (Staphylococcus aureus; DRSA (n = 8)) | MIC90 [uM] (Staphylococcus aureus; MRSA (n = 45)) | MIC90 [uM] (Staphylococcus aureus; MSSA (n-28))
2: MIC90 (Staphylococcus aureus; LRSA (n = 5)) | MIC 90% (Staphylococcus aureus; Linezolid-resistant (5)) | MIC90 (Staphylococcus aureus; VRSA (n = 14)) | Fold reduction (MRSA S. aureus strains; MRSA strain 241) | Fold reduction (MRSA S. aureus strains; MRSA strain 553) | Fold reduction (MRSA S. aureus strains; MRSA strain 650) | Fold reduction (MRSA S. aureus strains; MRSA strain 827) | Fold reduction (MRSA S. aureus strains; MRSA strain 829) | Fold reduction (MRSA S. aureus strains; MRSA strain 830)
16 µg/mL: MIC 90% [5] | MIC 50% (Streptococcus pneumoniae)
0.5 µg/mL: MIC combo (MRSA S. aureus strains; MRSA strain 223)
0.08 µM: MIC90 [uM] (Staphylococcus aureus; LRSA (n = 5)) | MIC90 [uM] (Staphylococcus aureus; VRSA (n = 14))
